Measurements taken from paper PMC10641755, “Structural basis of aggregate binding by the AAA+ disaggregase ClpG” (The Journal of Biological Chemistry, 2023).

How the values were obtained:
[1] = target: Firefly Luciferase, heat-aggregated (Firefly) [luciferase: P08659]
[2] = target: ClpG N1 core domain (N1∗), residues 1 to 46 (Pseudomonas aeruginosa, 15N (13C) isotope labelled for NMR); assay: NMR titration; unlabeled peptide 134 titrated to 15N-labeled N1∗ (80 μM N1∗, up to 240 μM peptide), 1H,15N-HSQC chemical shift perturbations, 298 K, 50 mM NaH2PO4 pH 6.5, 50 mM KCl, 2 mM DTT; settings: both partners purified

Sequence of Firefly Luciferase, heat-aggregated (Firefly) [luciferase: P08659] (P08659 whole entry, the tested form may be a part): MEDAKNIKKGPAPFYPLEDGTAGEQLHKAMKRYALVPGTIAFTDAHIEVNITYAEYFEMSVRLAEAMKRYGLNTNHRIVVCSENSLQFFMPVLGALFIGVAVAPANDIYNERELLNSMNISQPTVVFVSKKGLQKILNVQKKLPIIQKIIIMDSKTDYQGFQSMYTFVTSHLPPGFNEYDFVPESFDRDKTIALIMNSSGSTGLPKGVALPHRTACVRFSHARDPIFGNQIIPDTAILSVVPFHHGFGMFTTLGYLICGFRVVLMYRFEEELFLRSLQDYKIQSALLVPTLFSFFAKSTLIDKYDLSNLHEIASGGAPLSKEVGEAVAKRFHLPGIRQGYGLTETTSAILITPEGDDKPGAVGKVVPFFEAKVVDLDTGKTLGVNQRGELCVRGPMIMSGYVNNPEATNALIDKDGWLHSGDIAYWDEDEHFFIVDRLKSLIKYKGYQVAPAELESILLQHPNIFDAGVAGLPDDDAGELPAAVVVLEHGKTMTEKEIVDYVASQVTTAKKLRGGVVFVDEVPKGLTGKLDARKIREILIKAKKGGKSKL

## ClpG WT (P. aeruginosa ClpGGI) (enzyme)
[1]
  stimulation of ClpG ATPase activity by aggregated Luciferase: 1.4 fold

## CWFLRYLKASKVPLN (Unlabeled peptide) [Peptide 134]
[2]
  Kd: > 50 µM
